Laboratory results as given in patent US20040101829A1 (UNIVERSITY OF IOWA RESEARCH FOUNDATION, published 2004).

B2: Purified recombinant HCV envelope glycoprotein E2 (Ala 384-Lys 715) (other)
chain: ETHVTGGSAGHTVSGFVSLLAPGAKQNVQLINTNGSWHLNSTALNCNDSLNTGWLAGLFYHHKFNSSGCPERLASCRPLTDFDQGWGPISYANGSGPDQRPYCWHYPPKPCGIVPAKSVCGPVYCFTPSPVVVGTTDRSGAPTYSWGENDTDVFVLNNTRPPLGNWFGCTWMNSTGFTKVCGAPPCVIGGAGNNTLHCPTDCFRKHPDATYSRCGSGPWITPRCLVDYPYRLWHYPCTINYTIFKIRMYVGGVEHRLEAACNWTRGERCDLEDRDRSELSPLLLTTTQWQVLPCSFTTLPALSTGLIHLHQNIVDVQYLYGVGSSIASWAIK
notes: also called HCV E2; HCV-E2

Assays:
[1] = target: B2; assay: flow cytometry, recombinant E2 on mouse 3T3 cells expressing only murine CD81
[2] = target: T1, apoprotein B (apoB100), delipidized protein (human, UniProt P04114 28-4563); assay: flow cytometry on MOLT-4 cells incubated with E2, apo-B delipidized protein and E2/apoB; cell-bound E2 detected with antibody 108
T1 construct: also called apo-B delipidized protein; apoprotein apoB100
T1 sequence (P04114 28-4563 limits assumed): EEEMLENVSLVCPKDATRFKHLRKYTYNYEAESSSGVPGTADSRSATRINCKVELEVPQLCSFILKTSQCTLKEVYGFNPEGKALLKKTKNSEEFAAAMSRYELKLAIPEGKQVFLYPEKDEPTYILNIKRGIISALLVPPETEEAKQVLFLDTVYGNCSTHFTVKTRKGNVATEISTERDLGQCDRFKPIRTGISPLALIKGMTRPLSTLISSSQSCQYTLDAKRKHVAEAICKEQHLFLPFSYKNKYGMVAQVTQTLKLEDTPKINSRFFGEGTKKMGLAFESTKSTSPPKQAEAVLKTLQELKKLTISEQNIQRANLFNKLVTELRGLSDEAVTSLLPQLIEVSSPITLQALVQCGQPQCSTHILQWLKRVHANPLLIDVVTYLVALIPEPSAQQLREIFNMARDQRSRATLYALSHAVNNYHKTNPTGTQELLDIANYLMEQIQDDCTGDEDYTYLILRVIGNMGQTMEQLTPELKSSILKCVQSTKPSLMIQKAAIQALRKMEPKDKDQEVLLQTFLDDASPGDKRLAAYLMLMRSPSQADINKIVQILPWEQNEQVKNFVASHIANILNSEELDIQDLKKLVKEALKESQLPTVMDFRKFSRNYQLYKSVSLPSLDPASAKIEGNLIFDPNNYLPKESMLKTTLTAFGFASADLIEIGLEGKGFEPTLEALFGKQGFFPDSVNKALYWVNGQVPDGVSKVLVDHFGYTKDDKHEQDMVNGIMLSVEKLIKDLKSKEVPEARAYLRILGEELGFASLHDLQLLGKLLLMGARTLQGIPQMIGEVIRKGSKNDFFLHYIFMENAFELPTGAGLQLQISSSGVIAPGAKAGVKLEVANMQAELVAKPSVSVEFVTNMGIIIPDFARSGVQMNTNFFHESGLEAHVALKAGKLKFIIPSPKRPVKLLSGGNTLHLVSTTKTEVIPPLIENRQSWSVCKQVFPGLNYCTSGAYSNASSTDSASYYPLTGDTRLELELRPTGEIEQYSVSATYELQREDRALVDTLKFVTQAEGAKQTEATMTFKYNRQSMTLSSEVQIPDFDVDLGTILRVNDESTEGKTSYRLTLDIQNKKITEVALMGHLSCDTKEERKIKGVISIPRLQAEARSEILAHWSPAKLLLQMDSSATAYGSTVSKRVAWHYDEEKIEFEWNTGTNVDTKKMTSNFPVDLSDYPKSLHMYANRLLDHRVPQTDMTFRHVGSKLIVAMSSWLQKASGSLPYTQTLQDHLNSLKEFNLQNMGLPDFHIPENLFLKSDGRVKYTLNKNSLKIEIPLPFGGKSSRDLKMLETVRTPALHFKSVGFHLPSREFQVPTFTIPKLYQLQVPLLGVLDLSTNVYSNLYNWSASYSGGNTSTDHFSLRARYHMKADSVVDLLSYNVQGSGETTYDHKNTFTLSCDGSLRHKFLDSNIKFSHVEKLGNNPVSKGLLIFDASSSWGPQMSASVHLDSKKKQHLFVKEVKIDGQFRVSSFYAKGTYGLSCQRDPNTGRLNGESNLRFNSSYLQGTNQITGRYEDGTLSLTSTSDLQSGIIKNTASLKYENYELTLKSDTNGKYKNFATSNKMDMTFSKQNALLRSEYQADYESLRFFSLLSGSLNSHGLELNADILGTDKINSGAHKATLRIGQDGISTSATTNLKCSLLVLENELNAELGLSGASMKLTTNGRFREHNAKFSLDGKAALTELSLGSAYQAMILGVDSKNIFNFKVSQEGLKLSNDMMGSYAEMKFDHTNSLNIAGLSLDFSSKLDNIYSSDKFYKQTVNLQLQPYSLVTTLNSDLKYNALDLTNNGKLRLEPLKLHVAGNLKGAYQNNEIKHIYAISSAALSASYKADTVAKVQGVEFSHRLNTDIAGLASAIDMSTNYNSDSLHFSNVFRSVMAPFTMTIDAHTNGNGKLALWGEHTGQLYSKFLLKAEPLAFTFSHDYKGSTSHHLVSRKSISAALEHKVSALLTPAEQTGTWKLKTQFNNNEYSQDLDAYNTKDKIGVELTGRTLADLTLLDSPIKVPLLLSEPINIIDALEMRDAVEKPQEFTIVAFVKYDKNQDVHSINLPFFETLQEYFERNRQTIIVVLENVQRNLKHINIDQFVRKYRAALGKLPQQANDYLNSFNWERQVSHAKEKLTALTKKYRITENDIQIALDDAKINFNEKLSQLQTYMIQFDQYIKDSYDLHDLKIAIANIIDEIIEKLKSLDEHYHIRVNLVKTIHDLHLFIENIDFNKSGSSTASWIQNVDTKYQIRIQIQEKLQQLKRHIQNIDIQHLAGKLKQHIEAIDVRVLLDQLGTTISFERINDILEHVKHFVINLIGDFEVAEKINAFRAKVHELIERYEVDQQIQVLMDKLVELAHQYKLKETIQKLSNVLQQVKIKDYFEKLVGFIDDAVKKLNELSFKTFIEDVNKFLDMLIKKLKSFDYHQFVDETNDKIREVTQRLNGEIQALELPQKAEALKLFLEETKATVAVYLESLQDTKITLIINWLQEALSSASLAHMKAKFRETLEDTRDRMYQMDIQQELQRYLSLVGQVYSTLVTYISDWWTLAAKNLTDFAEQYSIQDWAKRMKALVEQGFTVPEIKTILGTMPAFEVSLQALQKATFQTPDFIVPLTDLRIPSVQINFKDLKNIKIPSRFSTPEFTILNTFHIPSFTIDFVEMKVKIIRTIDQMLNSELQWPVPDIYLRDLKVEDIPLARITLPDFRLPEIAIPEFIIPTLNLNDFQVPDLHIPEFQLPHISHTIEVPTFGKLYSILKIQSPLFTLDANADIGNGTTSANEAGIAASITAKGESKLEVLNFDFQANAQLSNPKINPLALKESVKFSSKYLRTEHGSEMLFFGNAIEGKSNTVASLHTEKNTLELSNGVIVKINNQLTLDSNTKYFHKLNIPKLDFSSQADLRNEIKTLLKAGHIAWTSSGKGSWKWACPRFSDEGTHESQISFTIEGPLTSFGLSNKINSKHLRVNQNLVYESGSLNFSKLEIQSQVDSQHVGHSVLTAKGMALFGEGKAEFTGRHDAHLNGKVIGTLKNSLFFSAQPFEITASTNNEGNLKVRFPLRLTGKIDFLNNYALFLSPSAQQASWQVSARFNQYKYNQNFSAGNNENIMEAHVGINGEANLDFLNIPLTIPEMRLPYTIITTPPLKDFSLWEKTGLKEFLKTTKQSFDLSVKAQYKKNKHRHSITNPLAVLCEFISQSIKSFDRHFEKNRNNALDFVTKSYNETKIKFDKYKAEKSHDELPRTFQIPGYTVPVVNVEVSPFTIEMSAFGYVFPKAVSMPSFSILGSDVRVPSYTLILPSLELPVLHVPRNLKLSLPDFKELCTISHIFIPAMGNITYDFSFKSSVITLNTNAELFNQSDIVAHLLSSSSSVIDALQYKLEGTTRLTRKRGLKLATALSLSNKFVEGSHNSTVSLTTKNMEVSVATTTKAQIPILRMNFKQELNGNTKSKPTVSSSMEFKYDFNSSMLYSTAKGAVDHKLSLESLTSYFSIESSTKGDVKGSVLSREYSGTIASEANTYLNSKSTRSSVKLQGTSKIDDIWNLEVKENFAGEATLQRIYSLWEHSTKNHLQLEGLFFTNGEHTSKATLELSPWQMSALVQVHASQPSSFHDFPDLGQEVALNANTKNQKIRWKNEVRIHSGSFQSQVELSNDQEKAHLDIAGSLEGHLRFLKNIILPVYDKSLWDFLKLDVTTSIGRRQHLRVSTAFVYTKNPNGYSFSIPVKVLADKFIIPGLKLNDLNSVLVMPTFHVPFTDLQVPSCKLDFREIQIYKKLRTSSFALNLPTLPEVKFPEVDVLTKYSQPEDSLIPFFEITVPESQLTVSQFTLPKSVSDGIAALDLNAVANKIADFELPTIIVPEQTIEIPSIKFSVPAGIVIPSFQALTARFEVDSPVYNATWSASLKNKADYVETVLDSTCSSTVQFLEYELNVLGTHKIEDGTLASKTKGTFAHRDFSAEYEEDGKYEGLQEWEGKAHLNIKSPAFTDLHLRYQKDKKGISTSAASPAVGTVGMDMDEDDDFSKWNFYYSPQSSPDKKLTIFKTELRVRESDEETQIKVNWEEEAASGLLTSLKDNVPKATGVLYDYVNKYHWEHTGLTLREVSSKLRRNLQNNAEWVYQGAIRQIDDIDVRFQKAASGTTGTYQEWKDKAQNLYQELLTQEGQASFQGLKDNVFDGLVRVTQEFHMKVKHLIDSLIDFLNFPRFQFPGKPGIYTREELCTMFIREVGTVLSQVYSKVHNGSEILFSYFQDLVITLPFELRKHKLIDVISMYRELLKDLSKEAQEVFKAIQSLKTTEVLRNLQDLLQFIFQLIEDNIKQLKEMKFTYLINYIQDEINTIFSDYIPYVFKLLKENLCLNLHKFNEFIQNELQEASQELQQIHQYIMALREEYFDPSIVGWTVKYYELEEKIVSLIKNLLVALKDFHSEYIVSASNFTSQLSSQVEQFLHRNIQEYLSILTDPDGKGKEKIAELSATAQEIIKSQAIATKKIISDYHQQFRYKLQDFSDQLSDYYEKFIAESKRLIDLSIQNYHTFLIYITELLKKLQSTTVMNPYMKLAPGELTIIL

[3] = target: T1, apoprotein B (apoB100), delipidized …; assay: flow cytometry on MOLT-4 cells, cell-bound apoB detected with goat polyclonal antibody

B1: murine CD81 on parental (control) mouse 3T3 cells (receptor, UniProt P35762 1-236, looked up)
chain: MGVEGCTKCIKYLLFVFNFVFWLAGGVILGVALWLRHDPQTTSLLYLELGNKPAPNTFYVGIYILIAVGAVMMFVGFLGCYGAIQESQCLLGTFFTCLVILFACEVAAGIWGFVNKDQIAKDVKQFYDQALQQAVMDDDANNAKAVVKTFHETLNCCGSNALTTLTTTILRNSLCPSGGNILTPLLQQDCHQKIDELFSGKLYLIGIAAIVVAVIMIFEMILSMVLCCGIRNSSVY
notes: whole, on cells; also called control 3T3 cells
B1: no binding [1].

B2: no binding [2].

B3: human low density lipoprotein receptor (LDLr) on MOLT-4 cells (receptor)
chain: not shown
notes: whole, on cells; also called human LDLr; hLDLr
B3: binds [3].
